Assay results published in patent publication US20220290167.

Biological target: T1, recombinant B. taurus beta casein with HA tag, 6 histidine tag and HDEL peptide, produced by pMOZ702 in N. benthamiana leaf
T1 chain: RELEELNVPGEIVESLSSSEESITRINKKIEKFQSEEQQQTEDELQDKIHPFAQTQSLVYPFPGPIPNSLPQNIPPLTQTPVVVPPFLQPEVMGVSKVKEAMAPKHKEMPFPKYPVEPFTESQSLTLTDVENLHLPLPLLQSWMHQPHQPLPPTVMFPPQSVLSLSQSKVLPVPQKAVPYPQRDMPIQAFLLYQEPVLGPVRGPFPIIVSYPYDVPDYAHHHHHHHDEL

B1: recombinant B. taurus Fam20A expressed from pMOZ15 (protein)
chain: MHVSSHLGPRVRSRLQPRERPLGCPCARRAASPAPGPAPSAPRRVEPSGGGDPGSKLRALFAHPLYNEPEEPPLLGPEDSLLAGPEALRYYRRKVARWNRRRKMYKEQLNLTSPEPPVQLRQEASWVQFHLGINRHGLYPRSSPVVSKLLQDMRHFPTISADYSQDEKALLGACDCSQIVKPSGVHLKLVLRFSDFGKAMFKPMRQQRDEETPEDFFYFIDFQRHNAEIAAFHLDRILDFRRVPPTVGRLVNVTREILEVTRNEILQSVFFVSPANNVCFFAKCPYMCKTEYAVCGSPHLLEGSLSAFLPSLNLAPRFSMPSPWIRSYSLAGREEWEVNPLYCEAVKQAYPHNSSSRLLNIIDMAIFDFLIGNMDRHHYEMFTKFGEDGFLIHLDNARGFGRHSHDEVSILAPLFQCCRIKRKTLLHLQLLAQADYRLSDVMRESLLEDQLSPVLTEPHLLALDRRLQTVLRTVQDCIEAHGEQSVVADGPVGQWAPDSSRANATSHDEL
In the case of B1, the “Western blot band migration of beta casein; BtFam20A coexpressed together with BtFam20C in tobacco leaf (FIG. 20, lane 7, '2 bovine kinases')” value is reported as “In lanes containing beta casein coexpressed with 1 human kinase, 2 human kinases, 1 bovine kinase or 2 bovine kinases the bands are shifted upward on the gel relative to the sample transformed with only beta casein”.

B2: recombinant B. taurus Fam20C expressed from pMOZ14 (protein)
chain: MLLPKLERSAARPSGEPGCSCAQPAAEAAAPGWAQARGHPGGELEAAASAAGDAGWPNKHTLRILQDFSSDPSSNLTSHSLEKLPPAAEAAEGAPPGQDPGVRRPPDPAHRPLPRDPGPRGPVLPPGLSGDGSLLTRLFQHPLYQVPIPPLTEGDVLFNVNSDIRFNPKAATAENPDWPHEGPEDEFLPTGEAAVDSYPNWLKFHIGINRYELYSRHNPAVGALLQDLGTQKITSVAMKSGGTQLKLIMTFQNYGQALFKPMKQTREQETPPDFFYFSDYERHNAEIAAFHLDRILDFRRVPPVAGRLVNMTKEIRDVTRDKKLWRTFFISPANNVCFYGECSYYCSTEHALCGKPDQIEGSLAAFLPDLALAKRKTWRNPWRRSYHKRKKAEWEVDPDYCEEVRQTPPYDSSHRLLDVMDMTIFDFLMGNMDRHHYETFEKFGNETFIIHLDNGRGFGKHSHDELSILVPLQQCCRIRRSTYLRLQLLAQEEHRLSLLMAEALRADRVAPVLFQPHLEALDRRLRIVLRAVGDCVEKDGLHSVVEDDLGPEHRAAAGRHDEL
B2 was tested, and the “Western blot band migration of beta casein; BtFam20C coexpressed together with BtFam20A in tobacco leaf (FIG. 20, lane 7, '2 bovine kinases')” value was “In lanes containing beta casein coexpressed with 1 human kinase, 2 human kinases, 1 bovine kinase or 2 bovine kinases the bands are shifted upward on the gel relative to the sample transformed with only beta casein”.

B3: recombinant H. sapiens Fam20C expressed from pMOZ11 (protein)
chain: LDLLPRLERRGARPSGEPGCSCAQPAAEVAAPGWAQVRGRPGEPPAASSAAGDAGWPNKHTLRILQDFSSDPSSNLSSHSLEKLPPAAEPAERALRGRDPGALRPHDPAHRPLLRDPGPRRSESPPGPGGDASLLARLFEHPLYRVAVPPLTEEDVLFNVNSDTRLSPKAAENPDWPHAGAEGAEFLSPGEAAVDSYPNWLKFHIGINRYELYSRHNPAIEALLHDLSSQRITSVAMKSGGTQLKLIMTFQNYGQALFKPMKQTREQETPPDFFYFSDYERHNAEIAAFHLDRILDFRRVPPVAGRMVNMTKEIRDVTRDKKLWRTFFISPANNICFYGECSYYCSTEHALCGKPDQIEGSLAAFLPDLSLAKRKTWRNPWRRSYHKRKKAEWEVDPDYCEEVKQTPPYDSSHRILDVMDMTIFDFLMGNMDRHHYETFEKFGNETFIIHLDNGRGFGKYSHDELSILVPLQQCCRIRKSTYLRLQLLAKEEYKLSLLMAESLRGDQVAPVLYQPHLEALDRRLRVVLKAVRDCVERNGLHSVVDDDLDTEHRAASARHDEL
B3 was tested, and the “Western blot band migration of beta casein; HsFam20C alone coexpressed in tobacco leaf (FIG. 20, lane 5, '1 human kinase')” value was “In lanes containing beta casein coexpressed with 1 human kinase, 2 human kinases, 1 bovine kinase or 2 bovine kinases the bands are shifted upward on the gel relative to the sample transformed with only beta casein”, the “Western blot band migration of beta casein; HsFam20C coexpressed together with HsFam20A in tobacco leaf (FIG. 19, lanes 3 and 4)” value was “In lanes containing beta casein coexpressed with the human kinases the bands are shifted upward on the gel relative to the sample transformed with only beta casein” and the “Western blot band migration of beta casein; HsFam20C coexpressed together with HsFam20A in tobacco leaf (FIG. 20, lane 8, '2 human kinases')” value was “In lanes containing beta casein coexpressed with 1 human kinase, 2 human kinases, 1 bovine kinase or 2 bovine kinases the bands are shifted upward on the gel relative to the sample transformed with only beta casein”.

B4: recombinant H. sapiens Fam20A expressed from pMOZ12 (protein)
chain: QLRPRERPRGCPCTGRASSLARDSAAAASDPGTIVHNFSRTEPRTEPAGGSHSGSSSKLQALFAHPLYNVPEEPPLLGAEDSLLASQEALRYYRRKVARWNRRHKMYREQMNLTSLDPPLQLRLEASWVQFHLGINRHGLYSRSSPVVSKLLQDMRHFPTISADYSQDEKALLGACDCTQIVKPSGVHLKLVLRFSDFGKAMFKPMRQQRDEETPVDFFYFIDFQRHNAEIAAFHLDRILDFRRVPPTVGRIVNVTKEILEVTKNEILQSVFFVSPASNVCFFAKCPYMCKTEYAVCGNPHLLEGSLSAFLPSLNLAPRLSVPNPWIRSYTLAGKEEWEVNPLYCDTVKQIYPYNNSQRLLNVIDMAIFDFLIGNMDRHHYEMFTKFGDDGFLIHLDNARGFGRHSHDEISILSPLSQCCMIKKKTLLHLQLLAQADYRLSDVMRESLLEDQLSPVLTEPHLLALDRRLQTILRTVEGCIVAHGQQSVIVDGPVEQLAPDSGQANLTSHDEL
B4 was tested, and the “Western blot band migration of beta casein; HsFam20A coexpressed together with HsFam20C in tobacco leaf (FIG. 19, lanes 3 and 4)” value was “In lanes containing beta casein coexpressed with the human kinases the bands are shifted upward on the gel relative to the sample transformed with only beta casein” and the “Western blot band migration of beta casein; HsFam20A coexpressed together with HsFam20C in tobacco leaf (FIG. 20, lane 8, '2 human kinases')” value was “In lanes containing beta casein coexpressed with 1 human kinase, 2 human kinases, 1 bovine kinase or 2 bovine kinases the bands are shifted upward on the gel relative to the sample transformed with only beta casein”.
